Results: the DeepSol protein solubility set

Test: soluble on expression in E. coli; label from the status in PepcDB or PDB records

Sequence | soluble on expression in E. coli
MGLQELDPLAQLSLPPGFRFYPTDEELMVEYLCRKAAGHDFSLQLIAEIDLYKFDPWVLPSKALFGEKEWYFFSPRDRKYPNGSRPNRVAGSGYWKATGTDKVISTEGRRVGIKKALVFYIGKAPKGTKTNWIMHEYRLIEPSRRNGSTKLDDWVLCRIYKKQTSAQKQAYNNLMTSGREYSNNGSSTSSSSHQYDDVLESLHEIDNRSLGFAAGSSNALPHSHRPVLTNHKTGFQGLAREPSFDWANLIGQNSVPELGLSHNVPSIRYGDGGTQQQTEGIPRFNNNSDVSANQGFSVDPVNGFGYSGQQSSGFGFI | soluble
MSIKKSPVYNVIAVPVEKVQANDYNPNVVAPPEMRLLELSIWEDGFTMPCVCYYDKEKDVYILVDGFHRYSVLKTSKRIFQRENGMLPIVVIEKDLSNRMSSTIRHNRARGTHNIELMCHIVAELDKAGMSDQWIMKNIGMDRDELLRLKQISGLADLFANRDFSVPEDDQPGNVDKKPTR | not soluble
MEGCVSNIMICNLAYSGKLDELKERILADKSLATRTDQDSRTALHWACSAGHTEIVEFLLQLGVPVNDKDDAGWSPLHIAASAGRDEIVKALLVKGAHVNAVNQNGCTPLHYAASKNRHEIAVMLLEGGANPDAKDHYDATAMHRAAAKGNLKMVHILLFYKASTNIQDTEGNTPLHLACDEERVEEAKFLVTQGASIYIENKEEKTPLQVAKGGLGLILKRLAEGEEASM | soluble
GPGSMAASSVASVSATKASALAAKKAEKDAHDSRSLFEEYEQLSKDIKNIQLKTMICRTETHQLMKEESAAKQEVKRIQAVPLVLGNFVEVVDSVRGIVSGTSGSQYFVRILSTLNKEHLKPNVSVGLHKSSNACVQLLPSETDATITLLNSSDRPDVTYSDVGGLDMQKQEIREAVELPLTHAGLYEQIGIDPPRGVLLYGPPGTGKTMLVKAVARHTKASFIRVVGSEFVQKFLGEGPRKVRDVFRLARENAPSIIFIDEVDSIATKRFDAQTGADREVQRVLVELLTQMDGFDQTTNVKVIMATNRWDTLDPALLRPGRLDRKIEFPYPDRRQKRLVFQVCTSKMNLSPEVDLEDYVTRPEKLSGADIQSICQEAGMLAVRKNRYVILPRDIENAYRTVIKKTGDETYDFYS | not soluble
MNAKEILVHSLRLLENGDARGWCDLFHPEGVLEFPYAPPGWKTRFEGRETIWAHMRLFPEHLTVRFTDVQFYETADPDLAIGEFHGDGVATVSGGKLAQDYISVLRTRDGQILLYRDFWNPLRHLEALGGVEAAAKIVQGA | soluble
MGSDKIHHHHHHMIHITSLDDGLELFKALGSDIRIQILKILLENNQMSMNQIANELNISNGALTGHIKKLEECGLISASNDSSGHGNQKLCSLIQDRILVEIEKPIDLSNVYNTSIKVGQFSSHNICPTCGLATSSFVIGELDDVRYFDHPDHFNADIMWFTKGYVEYVIPNLIPRNQKITQLSLSAEISSEAPGIDNDWPSDISFYINDTLVGTWTSPGDYGDVRGMFTPEWWPQNWNQYGLLKLLVINHKGTFIDGLKISDITTSELKLDYTSTIRFRIAVEEDSAHVGGLTIFGKSFGNYDQDIVVSINYEPLDTEKNTK | not soluble
MGSDKIHHHHHHMKNVNQELLNHVILHKDRIPHFHKDFPLILFWSHRSGCTTLANWFFFQIGLFNEAKKYHDFIHYYEFWVYKNNTNYIPELQNGLLTAEKAVCKLVRNPYTRAVSSFLLLADNPYAIPQWESIRQYLYNDKYSNRGISFKQFLYYVRALGPNSLTMDIHFSQQYVPGEENFIQHYIPLEDFNTQITKIEHTYDLVKSNLALLTNSDHHRAHKMMYTGSYAELSITDVAFPRFPTYESFYDEETMALVTEIYAQDFEMYPYTKGIF | not soluble
LTTHNFARKTFLKLAFCDICQKFLLNGFRCQTCGYKFHEHCSTKVPTMCVDW | soluble
SQQALRILEVRSAYCKNDFEWDNMKRLAFKNVDDSNTRLMREYVLETSHVETDSDK | soluble
MAEHECVQLVPIFSELGSEQLDIIESIVRHHHYPAGSTLFGADDPLDSLMIVANGQVKVYQLAANGREQLLYLLQTGDIDGEAALFENQRRTSFGEALVPTDVCSIRRSDFQDLMQKYPSISINVLNVFGKRLNQLERQTTSTATESVEARLANYITETAAALKTDTFKLPLKKKDLATFLGTTPESISRKLALFERQGLITQKPGKVIEINDADQLLLTE | soluble
MGSDKIHHHHHHSPTQELNSAKIISTLTAHYGERAGLRAKAWFQVLSKAEHVDEQEKLKMVNQFFNLFRFVEDKTLWGDSNYWATPMEFIGVNGGDCEDFSIAKYFTLLQLGVSEDKLRITMVKATTMNQYHMVLAYYPTPSSIPLVLDNLDREIKPATQRNDLLPVYSFNGKQLWLNKEKGRGVLAGSSSRLKKWNDLKHRLGVDRLRQPKLKME | not soluble
MGSDKIHHHHHHMISRTMQQQVNSSSIIRAMFEEGKRLSALYGADNVYDFSLGNPNVEPPAEVKQAIMDILNEENSTTVHGYMNNSGFEDVRGAIAASLNQRFATGFAADNILMTVGAAGGLNVIFKTLLNPEDEVLTFAPFFGEYRNYVQNYQGQLIVVSPNTKDFQPNLEELKEKISPRTKAVLINSPNNPTGVVYSAETIAALVDILRAKQEEYGTVIYLIGDEPYRELAYDQVEVPYLTKYYENTIVGYSYSKSLSLPGERIGYLVIPREAADYENLIAAANIANRILGFVNAPSLFQRVIAKCLDAQVNLDSYNRNRELLYNALVSYGYQCIKPEGAFYLFIKTPLENDLEFCTLAKSKNILIVPGTSFACPGYARIAYCVAYETIERALPGFEALINEVSWASA | not soluble
MGSDKIHHHHHHMPLRGGVTCRVPSGMWMVPPHCGVWVPGGMLHSNVATANARLFFLFIEPGAADLPNRCCTLSLSPLVRELIIELADQSEVATADSELMTTLLLSALSRMPVEHLHLPLTDEPRLARIASELADDPSDRSTMAQWARRVAMSENSLARLVQHQTGLTFGRWRQQLQLIIAIRSLASGATVQQVSGDLGYESVSAFITMFKKALGTSPSRYLRNFDR | not soluble
MSLNGIGSYEYCGRRISMQDSILVGNNFFGDASSLFGIFDGHGGDYGSCFISKEIQKSLEKLRGRALTKEVFENEIISAIQNINTLMEQNNMTDGATSVIVASTKTHYLIANIGDSRAIIIRRTETSPIPMKDIDDETQQTLRPKSPSKLVLPKKTLKGKLGWSGAGSSKTTNQIEVNFDYIGGGRIEVEALTHDHKPSYQEDRQRIRESGNYISDQEKVNGYISVTRAIGDVKCKAFVSCIPEFSEVARRSSDCFVICACDGVWDVFSNEEIGNLVMANEQMNCTELAKLIVDIAYCRLSSDNISCIVFNCQDSEGHHHHHH | soluble
GSMEPAMEPETLEARINRATNPLNKELDWASINGFCEQLNEDFEGPPLATRLLAHKIQSPQEWEAIQALTVLETCMKSCGKRFHDEVGKFRFLNELIKVVSPKYLGSRTSEKVKNKILELLYSWTVGLPEEVKIAEAYQMLKKQGIVKS | soluble
MAELQFPGVYVEDVGHLAFGTLKLTEKSLNFKGDKGGKSVNVTGSDIDKLKWQKLGNKPGLRVGLNDGGAHRFGGFKDTDLEKIQSFTSSNWSQSIDQSNLFIKGWNYGQAEVKGKTVEFSWEDKPIFEIPCTNVSNVIANKNEAVLEFHQNDDSKVQLMEMRFHMPIDLENEEDADKVEEFKKAVLAYAGLEAETEQPICLLTDILCTTPRGRYDIKVYPTSIALHGKTYDYKIPIKSINRLFLVPHKDGRHVYFVLSLNPPIRQGQTRYSYLIFEFGKDEEQDLELALTDEQLESSNGNLRRDMTGPIYETISILFKSICNLKITVPGRFLGSSGTPAIQCTHRQNPGLLYPMEKGFLFIHKPAMYIRFEEISSCHFARSDSGTVTRTFDFEIDLKYGGPLTFNAMEKEENNKLFDYLNKKNIKIRNSQRVENTVADSSDDEIDPYKAAVTAEGRQRDDSDDDSTDEDYDLDKDIKKKKEDKESSEGTGSEPDDEYDSGSEQDSSGTGESEPDSEQDVPSKRRKGEPKEKREKKEKREKKEGKKGKKDKDPNAPKRATSAYMQWFLASRNELKEDGDSVADVAKKGGAKWKTMSSDDKKKWEEKAEEDKSRYEKEMKEYRKNGPPSSSSKPSSSKTSKKSSGPSSSKAISKEYISDSDDSDDEEPKKKEKKAAPKEESEESNNGSDGSDESDDSD | soluble
SHMQSRELKTVSADCKKEAIEKCAQWVVRDCRPFSAVSGSGFIDMIKFFIKVKAEYGEHVNVEELLPSPITLSRKVTSDAKEKKALIGREIKSAVEKDGASATIDLWTDNYIKRNFLGVTLHYHENNELRDLILGLKSLDFERSTAENIYKKLKAIFSQFNVEDLSSIKFVTDRGANVVKSLANNIRINCSSHLLSNVLENSFEETPELNMPILACKNIVKYFKKANLQHRLRSSLKSECPTRWNSTYTMLRSILDNWESVIQILSEAGETQRIVHINKSIIQTMVNILDGFERIFKELQTCSSPSLCFVVPSILKVKEICSPDVGDVADIAKLKVNIIKNVRIIWEENLSIWHYTAFFFYPPALHMQQEKVAQIKEFCLSKMEDLELINRMSSFNELSATQLNQSDSNSHNSIDLTSHSKDISTTSFFFPQLTQNNSREPPVCPSDEFEFYRKEIVILSEDFKVMEWWNLNSKKYPKLSKLALSLLSIPASSAASERTFSLAGNIITEKRNRIGQQTVDSLLFLNSFYKNFCK | soluble
MSLTHSCRLSVAPMLDWTDRHCRYFHRLLSAQTLLYTEMVTTGAIIHGRGDFLAYNQEEHPVALQFGGSNPKDLAHCAKLAQERGYDEINLNVGCPSDRVQNGRFGACLMGEPDLVAECVAAMRAVVDIPVTVKTRIGIDDQDSYEFLTQFIATVAEKGGCEQFTIHARKAWLSGLSPKENREIPPLDYPRAYQIKRDFPHLTIAVNGGVKSLEEAKLHLQHLDGVMIGREAYQNPYLLAEVDQQIFGLETPVKKRSQVIHEMMPYIERELSQGTHLGHMTRHMLGLFQNMPGARQWRRHISENAHKPGAGLEVVEQALAKIPYQELGEGHHHHHH | soluble
GPGSMTYCPITRKELERYLPNFDPLLDPQIGEWVLVTPERRFAILGPLLQFVQEHAIKPIYPFLDNSEPSSAPVTTFNFCKEDSPKTLGDPSKVFPTLSEVWRRYRRRRFHISGMDEDGIGEEEENDDTILYLNPRALLLTPCAPAVFGGSDFIEGLDREGERVVFVNWKTGETRTDSGVLKPAPIPAWAEDVAEKAAMEWESWKKCVIPPSSTRE | soluble
MGSDKIHHHHHHMEFMKQLGSCCQYCAYPLSDDTYLVCGQCVRKRPSFDSAYIAYRFEEPLRSLIHQFKYHNGLYLASFLKQLLLNALPKNALKPDCLIPVPMHPKRLKRRGFNQAGVLTRLLARQLNIPYDLYYCQKIINTASQANLDGEQRRKNLRHAFYVSAVTYEHVMIVDDLLTTGSTANEMAHTLKNAGVKRVDICCCARAVTKN | not soluble
AGALWEIEKELFTKLPAPSSAINSHLQPAKPKVPQKKPSKWDPPAEFKVDLSTAVSYNDIGDINWKNLQQFKGIERSEKGTEGLFFVETESGVFIVKRSTNIESETFCSLLCMRLGLHAPKVRVVSSNSEEGTNMLECLAAIDKSFRVITTLANQANILLMELVRGITLNKLTTTSAPEVLTKSTMQQLGSLMALDVIVNNSDRLPIAWTNEGNLDNIMLSERGATVVPIDSKIIPLDASHPHGERVRELLRTLIAHPGHESSQFHSIRDIITLYTGYDVGTEGSISMQEGFLATVRECASFDLDAFERELLSWQESLQKCHNLSISPQAIPFILRMLRIFH | soluble
